The values that follow come from the supplement of paper PMC12042874.

± gives the uncertainty stated by the source.

This series in a line: amyloid nucleation score (Sup35N fusion, yeast selection) (log enrichment); library NNK2; higher = more nucleation; inactive = no reads after selection. In short, it runs like this:
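Random libraries were run with three technical output replicates. In each, psi-negative yeast expressing Sup35N fused to peptides of 20 random codons were induced 24 hours with 100 μM copper sulfate and grown 7 days at 30°C on medium lacking adenine and uracil, and input and output plasmid inserts were Illumina-sequenced. The nucleation score is the DiMSum log enrichment of output over input reads, centred on the mode score of non-aggregating sequences, and sequences under 100 input reads were excluded.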

Take ERTCSIRDPNRDIPGFPFSY: the amyloid nucleation score entry was “inactive”.

With DIFLTLEFYISVETKGAKKA, the amyloid nucleation score stood at 3.92 ± 0.05. For LNHCG the value was 0.738 ± 0.55. Substance VFDAKTFGGDTVFVAAEAHS returned an amyloid nucleation score of -0.669 ± 1. For RKNVYFIFPIISSLYKV the value was 7.009 ± 0.049.

As for YHFFKCRPCSFSWLITGMVK, the amyloid nucleation score was -0.287 ± 0.63. The substance IAIFWSYWGDVIVYSGMVLE gave an amyloid nucleation score of -0.187 ± 0.55. Substance FSRADTVF yielded an amyloid nucleation score of 2.79 ± 0.13. In turn, FMARRNVAYILEYIIVYRF had an amyloid nucleation score of -0.735 ± 0.64. In turn, TMIKSQMLYFSGLATRLRLG registered an amyloid nucleation score of 0.098 ± 0.26. IVFFVSWLIKCKPWFLVVNM: the amyloid nucleation score result was “inactive”. The substance NIGSVKN gave an amyloid nucleation score of 0.098 ± 0.38. As for NTIQCY, the amyloid nucleation score result was “inactive”.

In turn, DHHDTTHYYIWVDKYKYLV came in with an amyloid nucleation score of -0.216 ± 0.64.

In turn, GVFASSLLVFQLFFISPSNG gave an amyloid nucleation score of 6.181 ± 0.028. For WGENARAESRTEEMLL, the amyloid nucleation score turned out to be 1.81 ± 0.22.

For GERRTSLVVKYGRVAGYTYN, the amyloid nucleation score was -0.273 ± 0.62. Then LKTLIKDPMLYGQALSRVFC, with -0.737 ± 1.1; and VNSNINFMEGYGCFKKIVNF, with -1.36 ± 0.75; and PVMDNLFSKAFVG, with -0.741 ± 0.5. In turn, NLTYWLVLLRFKKLTDGEHE yielded an amyloid nucleation score of -0.259 ± 0.3.

In turn, LGFHWIRNGGGLVTVNLVCV showed an amyloid nucleation score of 0.747 ± 0.27. In turn, IYNLWYGISPSVMGGLGFLR yielded an amyloid nucleation score of 3.82 ± 0.062. For ICFYLLHDRIHHSWD the value was 5.3 ± 0.096.

In turn, TAAPSEVMPIMALRPPKESS yielded an amyloid nucleation score of -0.541 ± 0.79. LNSYFTFVWTSVFGCVDPYE yielded an amyloid nucleation score of 5.723 ± 0.035. For the substance TLGLHGED, the amyloid nucleation score is 0.23 ± 0.31. For FADTKDEGLYFGLMALLLEV the value was 0.016 ± 0.65; for IMFMGNTVIRDCDLQ, 4.32 ± 0.062. For the substance CVVRFRGPYKFCWPQDRSYS, the amyloid nucleation score came out at 0.247 ± 0.8.

Turning to FSMYSSSVWLDW, the amyloid nucleation score result was “inactive”. Then SKNVFKMGLDTSH, with -1.22 ± 0.32; and NCMPMEYNDGENAVMCGFNG, with 0.11 ± 0.27. KWYFRSWRLMLYSVKFSFRI had an amyloid nucleation score of -0.693 ± 0.55.

In turn, FVSLVWKTLKVSRSIVSNFD displayed an amyloid nucleation score of 2.74 ± 0.15. For YIYLNEKFCITYMRESWNCC the value was 0.651 ± 0.39. For RCGFLWCRHFPATSELGCVL the value was 0.752 ± 0.8. YRKHRLLH showed an amyloid nucleation score of -0.893 ± 0.76. For GLSAIPFTDG, the amyloid nucleation score was -0.722 ± 0.45. Turning to HILMKN, the amyloid nucleation score is -0.013 ± 0.42.

Regarding ASFQLELS, the amyloid nucleation score was determined as 0.438 ± 0.38.

KGSEPLYGLCIIMV: the amyloid nucleation score was 0.851 ± 0.8.

In turn, CVSVPFYQVCFVGPKMEPLG gave an amyloid nucleation score of 0.636 ± 0.18. In the case of NNDGTPDPNM, the amyloid nucleation score is -0.237 ± 0.63. RVYDGAVVR: the amyloid nucleation score is 0.547 ± 0.34.

With CYMTFYVMLTLDRTQSHSGH, the amyloid nucleation score was determined as 7.411 ± 0.051.

DLVVMSLRR registered an amyloid nucleation score of 6.18 ± 0.057. Then FNCTRKNLCFFGIVYSSIIT, with -0.86 ± 0.63; and VKYFSYDIVGVGREYYFKTT, with -0.555 ± 0.76; and KILDWRGWSRGSGPLTSSTW, with 1.04 ± 0.38. ARWWMSSKRR showed an amyloid nucleation score of 0.026 ± 0.65. For GLPPVC, the amyloid nucleation score turned out to be 0.851 ± 0.22.

Turning to IKWSLHRYYFVMFICSFIAS, the amyloid nucleation score was -0.83 ± 0.61.

Regarding LSALCES, the amyloid nucleation score came out at 0.98 ± 0.53. NRVLSFPRWGAIYVYTMTEF returned an amyloid nucleation score of -0.892 ± 1.1. In turn, VISHRKPFE registered an amyloid nucleation score of -0.283 ± 1. In turn, VDRWDGSVHCSIGGNFYCSG had an amyloid nucleation score of -0.545 ± 0.54. With KSCDIL, the amyloid nucleation score was -0.335 ± 0.79.

Turning to KRSCDQVCLLSRLIGQAGEW, the amyloid nucleation score came out at 2.26 ± 0.1. Consider LLMMRGSRVSNS, for which the amyloid nucleation score is -0.763 ± 0.39.

As for YLSGYRLRTVVAVDTGMWYV, the amyloid nucleation score was 2.65 ± 0.13. Consider SNNHND, for which the amyloid nucleation score entry was “inactive”. For HVLTAGNHVGSVMNWHANEM, the amyloid nucleation score result is “inactive”.

As for GINWSAVYR, the amyloid nucleation score is -0.083 ± 0.24.

The substance LAMYLWCTELP returned an amyloid nucleation score of -0.057 ± 0.63. Then HGKCVFGLPVLLQWKLGDQT, with 0.607 ± 0.57; and TSLGNL, with -0.825 ± 1.1. With RPRVVTQLFMYLNDCRGSPP, the amyloid nucleation score stood at 6.693 ± 0.055. Substance YYSMGSTCGILDQDSLNVDQ displayed an amyloid nucleation score of -1.34 ± 0.39. In turn, SLRFGYNFKFLAMIKFPHIR had an amyloid nucleation score of -0.644 ± 0.78. Take WVVRK: the amyloid nucleation score is -1.76 ± 0.44. On to SCRRADFGMAVVHSLLVCGE, for which the amyloid nucleation score came out at 0.709 ± 0.66. Take LFTVLKTVWANNNTYDSKQK: the amyloid nucleation score was -1.23 ± 0.78. In the case of VSVDGKLRFRPT, the amyloid nucleation score came to 0.313 ± 0.45. RVLVSS displayed an amyloid nucleation score of 0.713 ± 0.8.

Turning to CFSLRVENSVRRTTTHPCLD, the amyloid nucleation score came to 3.87 ± 0.075. PDDCGWVLMFENQFAAAGTP yielded an amyloid nucleation score of 0.122 ± 0.28. Take AFNDIYIMKMHIFGKSIVLL: the amyloid nucleation score result was “inactive”. For LSHPVIGGETKFPDDRNSQF the value was 0.119 ± 0.19. In the case of RSKLNIDV, the amyloid nucleation score is 1.95 ± 0.14.

In the case of STYLFNSSHPVSVISEAQFS, the amyloid nucleation score was -0.408 ± 0.79.

In the case of ITADNVKSNHKAVVMNDIHG, the amyloid nucleation score is -0.133 ± 0.49. With DGFHQCAS, the amyloid nucleation score worked out at 3.74 ± 0.089. On to IWNWRQYLYVLGADRFSYMC, for which the amyloid nucleation score was determined as 4.19 ± 0.049. As for CHANFNVG, the amyloid nucleation score worked out at 1.58 ± 0.19.

The substance TMSHEFV had an amyloid nucleation score of 0.085 ± 0.6. Then VSEANVTYINFFC, with 4.36 ± 0.089; and LWPVCALDEGL, with 0.669 ± 0.62; and QRAYVPQTLGVRISVSSRWQ, with 3.41 ± 0.096. For TRAWITWAKVWRSQMNRGKA the value was 0.699 ± 0.54; for PVYSSFYCCYVWHRNFRKYT, -0.975 ± 0.29; for CGCCRTRGL, 2.94 ± 0.054. Then NSVFKGFLNRFRF, with 2.32 ± 0.19; and NRAAKRGIRRHMSSYTYARV, with 0.153 ± 0.36; and LFGHRFPSYL, with -0.152 ± 1. On to TSDLNNSSSMKAYSNEHSGC, for which the amyloid nucleation score worked out at 0.411 ± 0.4. IRGLGWSAPLRVIRVAPTYV yielded an amyloid nucleation score of 0.501 ± 0.57. For TPSKKDGECWNFYRTMWFTG the value was -0.492 ± 0.79; for ISDGCCGMLNAYCFTLVNCK, 4.18 ± 0.062. Regarding SRSSHLM, the amyloid nucleation score came out at 0.073 ± 0.37. Turning to ITIYQYTNYLYGSWCNHLML, the amyloid nucleation score came to 0.157 ± 1. In the case of FFGICDVYSDMNFPIYTAY, the amyloid nucleation score entry is “inactive”. In the case of LCIIWVVRFYALWWSEPMGW, the amyloid nucleation score was 1.14 ± 0.18.

The substance IVSIFSWTEIRATLG yielded an amyloid nucleation score of -1.87 ± 0.55. For the substance MMFILLYKTFCAGEWAGGMY, the amyloid nucleation score was 6.053 ± 0.04. The substance ILIREPLHDIGNVNLLVRSS displayed an amyloid nucleation score of -0.359 ± 0.48. Turning to SCLIGLRLVLSLTAHDTETA, the amyloid nucleation score was 3.97 ± 0.11.

In turn, GVTWTV came in with an amyloid nucleation score of -0.104 ± 0.25. For the substance CHLHIYGTRIERAYHRDFFL, the amyloid nucleation score was 3.4 ± 0.1. As for LPTFSPQ, the amyloid nucleation score was 3.77 ± 0.13. Take LFGNWSFVVNRCVVSLKLM: the amyloid nucleation score result was “inactive”. For LWEVLWVFFDLNNVRLTMCN the value was -0.93 ± 0.78; for SKVRLQSGYTKHERKNFHWL, -0.001 ± 0.34; for GMESSMVRNVEHVKERVYIE, 3.6 ± 0.1.

As for VMTARHVLWSNLRVRPRGHD, the amyloid nucleation score was 0.867 ± 0.67. Regarding VMFWLPPTSGNSWSDCTHKI, the amyloid nucleation score entry is “inactive”. In turn, HYSRI yielded an amyloid nucleation score of 0.647 ± 0.58. In the case of LFDVADIDA, the amyloid nucleation score worked out at 0.736 ± 0.74. As to TRADDL, the amyloid nucleation score was 0.205 ± 0.4. On to IIALKMVVLIKCIKVY, for which the amyloid nucleation score entry is “inactive”.

In turn, VILVSVASINSRCVIGFSKF had an amyloid nucleation score of 4.64 ± 0.07. Consider IHKAGFKDKGC, for which the amyloid nucleation score entry is “inactive”. In turn, RNFFPHGFWSLQTKYNVLFM displayed an amyloid nucleation score of 5.684 ± 0.05. Then LLEYCCYFYRN, with 3.57 ± 0.12; and HEPGFHYYCY, with 2.43 ± 0.1. On to VRLLGYIWKLLPHVVNQKV, for which the amyloid nucleation score came to 0.31 ± 0.46. The substance SKFNFIYCAGDQLSYRYRLG gave an amyloid nucleation score of -0.728 ± 1. As for VYNLARSRSKAERVV, the amyloid nucleation score is 0.201 ± 1. Substance CVSWRYFMFPCLVSLEMSSS came in with an amyloid nucleation score of 3.71 ± 0.085. IVNLARLKCSMCRECCGRVL displayed an amyloid nucleation score of 2.64 ± 0.12.

The substance RFVYMDIRDMAGWTPLYVYP registered an amyloid nucleation score of -1.23 ± 1. Turning to FVWSFHCCMARWYGLGCSYM, the amyloid nucleation score is 1.1 ± 0.15.

The substance IKRSMCICY had an amyloid nucleation score of 0.089 ± 1.1. With VVWVSITKWATRAVISHGDT, the amyloid nucleation score amounted to 0.617 ± 0.32. On to RRAGNIVLECSG, for which the amyloid nucleation score was determined as 3.68 ± 0.11. For the substance RFNVLRIGPLSHLQGWEHPT, the amyloid nucleation score was -0.632 ± 0.63. Turning to FSKLVSIYFWGSGWWFCQWA, the amyloid nucleation score is -0.532 ± 0.64.

In turn, GILYFLFVLSSVGDVCRLLV came in with an amyloid nucleation score of -0.709 ± 0.63. VRILYGS: the amyloid nucleation score is 6.06 ± 0.082.

Substance SALCAYIQSLFNDCRTLDKW had an amyloid nucleation score of -0.5 ± 0.44.

ESYCAC showed an amyloid nucleation score of 1.55 ± 0.28.

In the case of CSVWRDLVAICLRD, the amyloid nucleation score result was “inactive”.
